The target of one experiment is PD-L1 (human) (UniProt Q9NZQ7). Nature of the experiment: flow cytometry on HEK293 cells transfected with PD-L1. Background: In flow cytometry, cells or beads pass a laser one at a time.
Experiment [1] concerns the target human PD-L1, full length, on transfected HEK293 cells (human) (UniProt Q9NZQ7). As to the kind of experiment: flow cytometry, Fc fusion at 22.2 nM on HEK293 cells transfected with PD-L1.
Experiment [2] addresses human CD28, full length, on transfected HEK293 cells (human) (UniProt P10747). Nature of the experiment: flow cytometry, Fc fusion at 66.6 nM on HEK293 cells transfected with CD28.
In a further experiment the target is T1, CD226 (human) (UniProt Q15762).
T1 sequence: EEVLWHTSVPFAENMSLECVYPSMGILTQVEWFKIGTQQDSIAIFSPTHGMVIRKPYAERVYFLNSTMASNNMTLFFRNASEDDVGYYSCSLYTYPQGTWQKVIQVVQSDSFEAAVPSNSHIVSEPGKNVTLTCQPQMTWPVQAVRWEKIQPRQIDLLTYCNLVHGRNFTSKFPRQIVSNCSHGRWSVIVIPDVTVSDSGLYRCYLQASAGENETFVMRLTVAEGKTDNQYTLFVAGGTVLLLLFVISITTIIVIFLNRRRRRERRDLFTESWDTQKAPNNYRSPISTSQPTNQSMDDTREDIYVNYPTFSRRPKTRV
As to the kind of experiment: flow cytometry, cells expressing target, 25 nM.

Another experiment has as its target T2, CD96 (UniProt P40200).
T2 sequence (looked up): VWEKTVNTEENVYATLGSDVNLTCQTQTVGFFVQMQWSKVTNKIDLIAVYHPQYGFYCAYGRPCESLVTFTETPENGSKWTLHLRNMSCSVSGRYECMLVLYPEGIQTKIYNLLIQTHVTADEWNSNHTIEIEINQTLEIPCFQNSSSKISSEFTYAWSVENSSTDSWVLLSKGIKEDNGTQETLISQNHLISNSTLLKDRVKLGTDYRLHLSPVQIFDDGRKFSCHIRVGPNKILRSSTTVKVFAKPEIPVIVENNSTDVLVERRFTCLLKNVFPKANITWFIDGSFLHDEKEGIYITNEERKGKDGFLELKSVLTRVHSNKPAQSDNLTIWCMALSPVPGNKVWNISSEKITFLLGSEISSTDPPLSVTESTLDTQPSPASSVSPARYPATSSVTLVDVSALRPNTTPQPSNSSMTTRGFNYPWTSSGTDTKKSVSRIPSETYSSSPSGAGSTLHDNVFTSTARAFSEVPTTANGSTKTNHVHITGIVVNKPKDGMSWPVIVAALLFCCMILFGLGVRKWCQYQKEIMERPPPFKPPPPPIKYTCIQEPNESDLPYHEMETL
Nature of the experiment: flow cytometry, cells expressing target, 25 nM.

Another experiment has as its target CD112R (human) (UniProt Q6DKI7). As to the kind of experiment: flow cytometry, cells expressing target, 25 nM.
Experiment [3] concerns the target CD96, expressed on transfected cells (UniProt P40200). As to the kind of experiment: flow cytometry on transfected cells.
For experiment [4], the target named is CD112R, expressed on transfected cells (human) (UniProt Q6DKI7). Nature of the experiment: flow cytometry on transfected cells.
Experiment [5] concerns the target T3, human CD226, full length, expressed on transfected cells (human) (UniProt Q15762).
T3 sequence: T1 sequence
Nature of the experiment: flow cytometry on transfected cells.

Experiment [6] has as its target CD80 (Homo sapiens (Human)) (UniProt P33681). Nature of the experiment: flow cytometry, cells expressing CD80.

This note sets out measurements from patent US20200040059A1.

Values joined by “and” are separate entries in the source; they are usually repeats but may differ in a detail not shown here. Equal entries are not always repeated.

Sequence of CD80 (Homo sapiens (Human)) (P33681 35-288 limits assumed): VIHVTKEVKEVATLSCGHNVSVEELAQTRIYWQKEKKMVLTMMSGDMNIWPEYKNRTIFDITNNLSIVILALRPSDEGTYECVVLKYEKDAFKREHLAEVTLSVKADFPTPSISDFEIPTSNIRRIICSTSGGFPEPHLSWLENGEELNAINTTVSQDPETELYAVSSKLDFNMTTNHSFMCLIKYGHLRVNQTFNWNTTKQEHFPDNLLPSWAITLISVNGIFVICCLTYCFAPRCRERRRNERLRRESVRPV
Sequence of CD112R, expressed on transfected cells (human) (Q6DKI7 whole entry): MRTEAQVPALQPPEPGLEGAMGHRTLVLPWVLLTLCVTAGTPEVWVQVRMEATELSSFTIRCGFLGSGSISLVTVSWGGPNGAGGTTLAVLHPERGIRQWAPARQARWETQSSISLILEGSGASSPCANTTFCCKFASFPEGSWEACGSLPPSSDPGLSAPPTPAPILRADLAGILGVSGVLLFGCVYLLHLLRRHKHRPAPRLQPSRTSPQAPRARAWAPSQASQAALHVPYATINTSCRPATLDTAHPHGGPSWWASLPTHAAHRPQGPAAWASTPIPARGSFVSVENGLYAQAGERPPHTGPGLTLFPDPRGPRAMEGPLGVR
Sequence of CD112R (human) (Q6DKI7 whole entry): as above
Sequence of CD112-IgV (Q92692 32-156 limits assumed): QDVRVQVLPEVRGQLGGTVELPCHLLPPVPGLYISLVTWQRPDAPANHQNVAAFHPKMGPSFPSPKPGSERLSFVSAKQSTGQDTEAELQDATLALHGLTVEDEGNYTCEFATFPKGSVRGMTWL

Substance “CD80 IgV-Fc I30V/T57I/L70P/A71D/A91T (from UniProt P33681 35-141) (Fc fusion)” returned an MFI at 22.2 nM in the experiment with PD-L1 (human) of 5890 MFI. Still for that read-out and setting: under “CD80 IgV-Fc Q27H/M43I/A71D/R73S (from UniProt P33681 35-141) (Fc fusion)” stands 8240 MFI. With “CD80 variant IgV-Fc A12T/E24D/E35D/D46V/I61V/L72P/E95V (from UniProt P33681 35-141) (Fc fusion)”, the MFI at 22.2 nM in [1] was 1220 MFI. Further, the MFI at 66.6 nM in experiment [2] stood at 7410 MFI. The corresponding values for “CD80 variant IgV-Fc A71D/L72V/E95K (from UniProt P33681 35-141) (Fc fusion)” are 8420 MFI and 6310 MFI. In experiment [1], “CD80 variant IgV-Fc D46E/A71D (from UniProt P33681 35-141) (Fc fusion)” displayed an MFI at 22.2 nM of 22800 MFI. The MFI at 66.6 nM in [2] stood at 16800 MFI.

For the substance “CD80 variant IgV-Fc E35D (from UniProt P33681 35-141) (Fc fusion)”, in experiment [1], the MFI at 22.2 nM was determined as 25500 MFI. The substance further had an MFI at 66.6 nM in [2] of 3450 MFI.

The substance “CD80 variant IgV-Fc E35D/A71D (IgV SEQ ID NO:622) (from UniProt P33681 35-141) (Fc fusion)” registered an MFI at 22.2 nM in experiment [1] of 13800 MFI. In [2], this substance gave an MFI at 66.6 nM of 15000 MFI.

As to “CD80 variant IgV-Fc E35D/A71D/L72V (from UniProt P33681 35-141) (Fc fusion)”, the MFI at 22.2 nM in experiment [1] amounted to 13100 MFI. Take “CD80 variant IgV-Fc E35D/I67L/A71D (from UniProt P33681 35-141) (Fc fusion)”: in experiment [1], the MFI at 22.2 nM is 9350 MFI. For the same substance, in experiment [2], the MFI at 66.6 nM stood at 11200 MFI.

For “CD80 variant IgV-Fc E35D/M47I/L70M (from UniProt P33681 35-141) (Fc fusion)”, the MFI at 22.2 nM in experiment [1] was 49100 MFI. Take “CD112-IgV (from UniProt Q92692 32-156) (Fc fusion)”: the MFI at 25 nM with CD226 (human) came to 824 MFI; with CD96, 1170 MFI. For the substance “CD155 variant IgV-Fc P18S, L21M, Y30F, N35D, R84W, F91S, T107M, D116G (from UniProt P15151 24-139) (Fc fusion)”, the MFI at 25 nM came to 743 MFI with CD226 (human), 946 MFI with CD112R (human) and 1030 MFI with CD96. For the substance “CD155 variant IgV-Fc P18S, P34S, E51V, L79P, F91S, G111R (from UniProt P15151 24-139) (Fc fusion)”, the MFI at 25 nM stood at 769 MFI with CD226 (human), 853 MFI in the experiment with CD112R (human) and 892 MFI with CD96. Consider “CD155 variant IgV-Fc P18S, S42T, E51G, L79P, F91S, G92W, T107M (from UniProt P15151 24-139) (Fc fusion)”, for which the MFI at 25 nM was 707 MFI and 851 MFI with CD226 (human); 857 MFI and 935 MFI in the experiment with CD112R (human); 1050 MFI and 924 MFI in the experiment with CD96. On to “CD155 variant IgV-Fc P18S, W46R, E68D, L79P, F91S, T107M, R113G (from UniProt P15151 24-139) (Fc fusion)”, for which the MFI at 25 nM in the experiment with CD226 (human) is 717 MFI; in the experiment with CD112R (human), 798 MFI; in the experiment with CD96, 737 MFI.

Regarding “CD155 variant IgV-Fc T15I, P18S, V33M, N35F, T39S, M55L, R78S, L79P, F91S, T107M (from UniProt P15151 24-139) (Fc fusion)”, the MFI at 25 nM with CD226 (human) amounted to 1020 MFI; in the experiment with CD112R (human), 789 MFI; with CD96, 2710 MFI.

“CD155 variant IgV-Fc V9I, P18S, S24P, H49Q, F58Y, Q60R, Q62K, L79P, F91S, T107M (from UniProt P15151 24-139) (Fc fusion)”: the MFI at 25 nM with CD226 (human) was found to be 1090 MFI; in the experiment with CD112R (human), 1030 MFI; with CD96 it was 43900 MFI. The corresponding values for “CD155 variant IgV-Fc V9L, P18Y, V25A, V38G, M55V, A77T, L79P, M90I, F91S, L104M (from UniProt P15151 24-139) (Fc fusion)” are 26000 MFI, 919 MFI and 18000 MFI. The corresponding values for “CD155 variant IgV-Fc V11A, P18T, N35S, L79P, S87T, F91S (from UniProt P15151 24-139) (Fc fusion)” are 274000 MFI, 1270 MFI and 69900 MFI. Consider “CD155 variant S42N, S52E, V57L, L104E IgV-Fc (from UniProt P15151 24-139) (Fc fusion)”, for which the MFI at 100 nM in experiment [3] was determined as 1540; in experiment [4], 1690; in experiment [5] it was 1740.

For “CD155 variant S42Q IgV-Fc (from UniProt P15151 24-139) (Fc fusion)”, the MFI at 100 nM in experiment [3] is 2140; in [4], 1910; in experiment [5], 2230.

Regarding “CD155 variant S42V, S52E IgV-Fc (from UniProt P15151 24-139) (Fc fusion)”, the MFI at 100 nM in [3] was determined as 2530; in experiment [4], 1810; in experiment [5], 2270. The corresponding values for “CD155 variant S42W, S52Q, V57L, Q62Y IgV-Fc (from UniProt P15151 24-139) (Fc fusion)” are 1700, 1840 and 2140. For the substance “CD155 variant S52M, Q62Y IgV-Fc (from UniProt P15151 24-139) (Fc fusion)”, the MFI at 100 nM in [3] came to 1650; in [4], 1770; in experiment [5] it was 2000. The corresponding values for “CD155 variant S52M, V57L IgV-Fc (from UniProt P15151 24-139) (Fc fusion)” are 1860, 2010 and 2430. For “CD155 variant S52W, L104E IgV-Fc (from UniProt P15151 24-139) (Fc fusion)”, the MFI at 100 nM in experiment [3] was determined as 1630; in [4], 2070; in experiment [5] it was 1910. As to “variant PD-L1 ECD-Fc E54G, M97L, S99G (from UniProt Q9NZQ7 19-238) (Fc fusion)”, in experiment [6], the MFI at 20 nM is 51900. Same read-out and setting: with “variant PD-L1 ECD-Fc G15A, V129D (from UniProt Q9NZQ7 19-238) (Fc fusion)” the figure was 128; with “variant PD-L1 ECD-Fc I36S, M97L (from UniProt Q9NZQ7 19-238) (Fc fusion)”, 44600. On the same count and under the same terms, under “variant PD-L1 ECD-Fc I36T, M97L, V129D (from UniProt Q9NZQ7 19-238) (Fc fusion)” stands 50900; under “variant PD-L1 ECD-Fc K57R, S99G (from UniProt Q9NZQ7 19-238) (Fc fusion)”, 16300.

In experiment [6], “variant PD-L1 ECD-Fc K57R, S99G, R195G (from UniProt Q9NZQ7 19-238) (Fc fusion)” showed an MFI at 20 nM of 11000. As to “variant PD-L1 ECD-Fc M18V, I98L, L124S, P198T, L206F (from UniProt Q9NZQ7 19-238) (Fc fusion)”, the MFI at 20 nM in experiment [6] stood at 143. In experiment [6], “variant PD-L1 ECD-Fc M18V, M97L, T176N, R195G (from UniProt Q9NZQ7 19-238) (Fc fusion)” came in with an MFI at 20 nM of 45300. The same measure, in the same setting: with “variant PD-L1 ECD-Fc S99G, T185A, R195G, P198T (from UniProt Q9NZQ7 19-238) (Fc fusion)” the figure was 22100; with “variant PD-L1 ECD-Fc V93E, V129D (from UniProt Q9NZQ7 19-238) (Fc fusion)”, 150.

In turn, “variant PD-L1 ECD-Fc V129D, H202Q (from UniProt Q9NZQ7 19-238) (Fc fusion)” registered an MFI at 20 nM in experiment [6] of 219. For “variant PD-L1 ECD-Fc V129D, P198T (from UniProt Q9NZQ7 19-238) (Fc fusion)”, the MFI at 20 nM in [6] was 152. For “variant PD-L1 ECD-Fc V129D, T150A (from UniProt Q9NZQ7 19-238) (Fc fusion)”, the MFI at 20 nM in experiment [6] turned out to be 142.
